Assays:
Rat SLIT1-N = target: T1, Rat SLIT1-N (rat, UniProt O88279 34-1124, limits assumed); assay: HTRF competition: d2-labelled rat SLIT1-N binding to human ROBO2 on HEK293 cells; geometric mean, n=3
T1 construct: domain: SLIT1-N; d2-labelled in the HTRF assay
T1 sequence (looked up): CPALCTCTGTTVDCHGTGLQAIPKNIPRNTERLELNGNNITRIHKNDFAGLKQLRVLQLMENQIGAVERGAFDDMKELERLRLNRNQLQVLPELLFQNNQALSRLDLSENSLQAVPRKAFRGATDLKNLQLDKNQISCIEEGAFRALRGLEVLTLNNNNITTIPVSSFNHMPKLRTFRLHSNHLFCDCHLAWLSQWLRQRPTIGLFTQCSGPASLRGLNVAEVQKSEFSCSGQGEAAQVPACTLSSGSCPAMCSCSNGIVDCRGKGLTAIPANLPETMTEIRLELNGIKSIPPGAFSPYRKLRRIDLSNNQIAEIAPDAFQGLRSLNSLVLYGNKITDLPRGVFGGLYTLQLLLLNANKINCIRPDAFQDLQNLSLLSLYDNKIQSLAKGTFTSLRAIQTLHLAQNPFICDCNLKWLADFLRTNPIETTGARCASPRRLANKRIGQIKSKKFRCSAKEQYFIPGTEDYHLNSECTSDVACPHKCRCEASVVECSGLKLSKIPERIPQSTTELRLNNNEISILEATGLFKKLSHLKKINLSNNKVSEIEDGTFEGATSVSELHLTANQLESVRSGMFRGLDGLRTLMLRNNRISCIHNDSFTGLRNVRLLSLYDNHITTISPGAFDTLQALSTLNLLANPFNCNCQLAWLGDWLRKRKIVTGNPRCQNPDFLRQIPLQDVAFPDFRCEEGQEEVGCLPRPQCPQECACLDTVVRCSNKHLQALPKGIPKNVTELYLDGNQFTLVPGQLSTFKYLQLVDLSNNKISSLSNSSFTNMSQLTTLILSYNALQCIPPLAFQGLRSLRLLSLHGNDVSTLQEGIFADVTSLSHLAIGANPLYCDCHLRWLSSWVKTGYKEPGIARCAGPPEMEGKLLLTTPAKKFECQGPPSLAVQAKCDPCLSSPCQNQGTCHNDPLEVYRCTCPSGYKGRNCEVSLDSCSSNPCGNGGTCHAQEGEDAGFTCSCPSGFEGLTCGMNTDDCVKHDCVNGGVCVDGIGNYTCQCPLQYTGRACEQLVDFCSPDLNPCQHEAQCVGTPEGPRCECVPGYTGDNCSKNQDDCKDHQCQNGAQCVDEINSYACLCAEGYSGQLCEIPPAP
Experimental: (§1) After incubation, fluorescence at 665 nm and 620 nm was measured on an Envision multilabel plate reader. The HTRF Ratio was calculated as follows: fluorescence at 665 nm/fluorescence at 620 nm×10,000. […] The IC₅₀ for each SLITx-N was determined using an 11-point, 4-fold dilution series with a top concentration of 4000 nM.

Rat SLIT3-N = target: T2, Rat SLIT3-N (rat, UniProt O88280 34-1119, limits assumed); assay: HTRF competition: d2-labelled rat SLIT3-N binding to human ROBO2 on HEK293 cells; geometric mean, n=3
T2 construct: domain: SLIT3-N; d2-labelled in the HTRF assay
T2 sequence (looked up): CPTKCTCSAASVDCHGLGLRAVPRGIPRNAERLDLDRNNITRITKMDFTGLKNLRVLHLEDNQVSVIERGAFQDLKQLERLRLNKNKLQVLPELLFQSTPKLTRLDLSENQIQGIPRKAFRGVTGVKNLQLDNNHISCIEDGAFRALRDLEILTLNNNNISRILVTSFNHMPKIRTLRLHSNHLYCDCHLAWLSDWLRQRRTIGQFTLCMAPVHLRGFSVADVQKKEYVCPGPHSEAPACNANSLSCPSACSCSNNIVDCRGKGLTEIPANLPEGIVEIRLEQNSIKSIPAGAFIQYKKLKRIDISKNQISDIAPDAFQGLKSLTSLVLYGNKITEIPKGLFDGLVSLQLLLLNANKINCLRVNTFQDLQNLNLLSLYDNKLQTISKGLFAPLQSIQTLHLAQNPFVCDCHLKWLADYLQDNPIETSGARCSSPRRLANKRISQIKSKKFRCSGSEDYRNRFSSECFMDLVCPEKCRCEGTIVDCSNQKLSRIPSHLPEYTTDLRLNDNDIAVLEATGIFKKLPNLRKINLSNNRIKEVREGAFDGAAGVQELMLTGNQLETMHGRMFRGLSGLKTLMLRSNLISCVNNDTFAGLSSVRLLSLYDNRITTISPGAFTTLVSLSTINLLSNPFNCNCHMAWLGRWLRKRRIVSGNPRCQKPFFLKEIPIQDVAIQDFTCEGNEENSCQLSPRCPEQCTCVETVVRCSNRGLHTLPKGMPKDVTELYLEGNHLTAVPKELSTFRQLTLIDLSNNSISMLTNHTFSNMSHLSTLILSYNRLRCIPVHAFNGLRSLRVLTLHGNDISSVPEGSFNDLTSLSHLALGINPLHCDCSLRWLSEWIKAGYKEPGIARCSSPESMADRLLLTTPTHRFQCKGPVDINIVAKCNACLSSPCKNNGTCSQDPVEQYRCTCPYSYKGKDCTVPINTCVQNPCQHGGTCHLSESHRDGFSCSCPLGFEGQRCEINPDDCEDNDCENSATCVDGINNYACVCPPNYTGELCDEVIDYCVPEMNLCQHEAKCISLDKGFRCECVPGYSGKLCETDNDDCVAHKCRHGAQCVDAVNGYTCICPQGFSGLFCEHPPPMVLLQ
Experimental: as §1

B1: ROBO2-Fc 2.2 (Fc fusion)
chain: SRLRQEDFPPRIVEHPSDVIVSKGEPTTLNCKAEGRPTPTIEWYKDGERVETDKDDPRSHRMLLPSGSLFFLRIVHGRRSKPDEGSYVCVARNYLGEAVSRNASLEVALLRDDFRQNPTDVVVAAGEPAILECQPPRGHPEPTIYWKKDKVRIDDKEERISIRGGKLMISNTRKSDAGMYTCVGTNMVGERDSDPAELTVFERGGSGGSEPKSSDKTHTCPPCPAPEAAGAPSVFLFPPKPKDTLMISRTPEVTCVVVDVSHEDPEVKFNWYVDGVEVHNAKTKPREEQYNSTYRVVSVLTVLHQDWLNGKEYKCKVSNKALPAPIEKTISKAKGQPREPQVYTLPPSREEMTKNQVSLTCLVKGFYPSDIAVEWESNGQPENNYKTTPPVLDSDGSFFLYSKLTVDKSRWQQGNVFSCSVMHEALHNHYTQKSLSLSPG
notes: Labelled with Alexa Fluor 647 in the flow cytometry assay; also called ROBO-Fc 2.2; ROBO2-Fc 2.2-AF647
Rat SLIT1-N
  IC50: 8.3 nM
Rat SLIT3-N
  IC50: 3 nM
